In US20210355204A1:

Tests used:
TGFβ1 (human) [1] = target: TGFβ1 (human) (UniProt P01137); experiment: cell-based or functional assay
TGFβ2 (human) [2] = target: TGFβ2 (human) (UniProt P61812); experiment: cell-based or functional assay
TGFβ3 (human) [3] = target: TGFβ3 (human) (UniProt P10600); experiment: cell-based or functional assay
TGFβ1 (human) [4] = target: TGFβ1 (human) (UniProt P01137); experiment: SPR (Biacore 2000), TGFβ immobilised on CM1 chip, antibody injected
TGFβ2 (human) [5] = target: TGFβ2 (human) (UniProt P61812); experiment: as above
TGFβ3 (human) [6] = target: TGFβ3 (human) (UniProt P10600); experiment: as above
TGFβ1 (human) [7] = target: TGFβ1 (human) (UniProt P01137); experiment: SPR (Biacore A100), BM-1 captured on anti-mouse Fc CM5 chip, TGFβ injected
TGFβ2 (human) [8] = target: TGFβ2 (human) (UniProt P61812); experiment: as above
TGFβ3 (human) [9] = target: TGFβ3 (human) (UniProt P10600); experiment: as above

TGFβ3 (human), sequence (P10600 301-412 limits assumed): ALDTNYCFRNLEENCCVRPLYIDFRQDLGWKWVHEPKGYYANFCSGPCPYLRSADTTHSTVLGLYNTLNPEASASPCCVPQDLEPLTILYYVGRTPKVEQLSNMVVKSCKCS
TGFβ2 (human), sequence (P61812 303-414 limits assumed): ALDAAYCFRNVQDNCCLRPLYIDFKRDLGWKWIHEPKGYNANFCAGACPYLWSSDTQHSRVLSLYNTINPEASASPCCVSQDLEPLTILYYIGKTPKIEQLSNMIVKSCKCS
TGFβ1 (human), sequence (P01137 279-390 limits assumed): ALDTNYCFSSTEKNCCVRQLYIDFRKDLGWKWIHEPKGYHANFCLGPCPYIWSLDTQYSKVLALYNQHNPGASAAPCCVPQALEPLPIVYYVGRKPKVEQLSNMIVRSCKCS

- HT-2 cell neutralization assay, IC50 (TGFβ1 (human) [1]): 220
- IL-11 Release Assay - IC50 (A549 cells) (TGFβ1 (human) [1]): 0.292 µg/mL
- IL-11 Release Assay - IC50 (A549 cells) (TGFβ2 (human) [2]): 0.498 µg/mL
- HT-2 cell neutralization assay, IC50 (TGFβ3 (human) [3]): 196
- IL-11 Release Assay - IC50 (A549 cells) (TGFβ3 (human) [3]): 0.012 µg/mL
- Kd (TGFβ1 (human) [4]): 0.304 nM
- koff (TGFβ1 (human) [4]): 0.0039 s⁻¹
- kon (TGFβ1 (human) [4]): 1.28e+07 M⁻¹ s⁻¹
- Kd (TGFβ2 (human) [5]): 0.977 nM
- koff (TGFβ2 (human) [5]): 0.00684 s⁻¹
- kon (TGFβ2 (human) [5]): 7e+06 M⁻¹ s⁻¹
- Kd (TGFβ3 (human) [6]): 0.188 nM
- koff (TGFβ3 (human) [6]): 0.000946 s⁻¹
- kon (TGFβ3 (human) [6]): 5.05e+06 M⁻¹ s⁻¹
- Kd (TGFβ1 (human) [7]): 0.072 nM
- koff (TGFβ1 (human) [7]): 0.0014 s⁻¹
- kon (TGFβ1 (human) [7]): 1.9e+07 M⁻¹ s⁻¹
- Kd (TGFβ2 (human) [8]): 0.17 nM
- koff (TGFβ2 (human) [8]): 0.002 s⁻¹
- kon (TGFβ2 (human) [8]): 1.1e+07 M⁻¹ s⁻¹
- Kd (TGFβ3 (human) [9]): 0.048 nM
- koff (TGFβ3 (human) [9]): 0.00031 s⁻¹
- kon (TGFβ3 (human) [9]): 6.5e+06 M⁻¹ s⁻¹
B1: BM-1 (1D11, R&D Systems MAB1835) (antibody, from another filing, V domains shown)
VH: QVQLQQSGPELVRPGASVKLSCKASGYIFITYWMNWVKQRPGQGLEWIGQIFPASGSTNYNEMFEGKATLTVDTSSSTAYMQLSSLTSEDSAVYYCARGDGNYALDAMDYWGQGTSVTVSS
VL: DIVLTQSPASLAVSLGQRATISCRASESVDSYGNSFMHWYQQKSGQPPKLLIYLASNLESGVPARFSGSGSRTDFTLTIDPVEADDAATYYCQQNNEDPLTFGAGTKLEIK
